Reference: paper PMC10434055, “Functional Characterization of Small Alarmone Synthetase and Small Alarmone Hydrolase Proteins from Treponema denticola” (Microbiology Spectrum, 2023)
Where two headings read alike, the source gives them in different places.

Experiments:
Tde-SAS = system: T1, Tde-SAS; assay: AMP by-product quantified by Mono Q anion-exchange chromatography; format: biochemical, Treponema denticola; details: 5 mM ATP, 10 mM MgCl2, pH 8.8, 37 °C, no added alarmone
T1 construct: gene TDE1711; full length, 410 aa; pET28a recombinant in E. coli BL21(DE3), IMAC purified; recombinant MW 51,318 Da; homotetramer (SEC ~220 kDa)

Tde-SAS1–246 = system: T2, Tde-SAS1–246; assay: as above; format: biochemical, Treponema denticola; details: 5 mM ATP, 10 mM MgCl2, pH 8.8, 37 °C, no added alarmone
T2 construct: gene TDE1711; N-terminal catalytic domain, residues 1-246, TPR domain removed; pET28a recombinant in E. coli BL21(DE3), IMAC purified; recombinant MW 32,557 Da; homotetramer (SEC ~160 kDa)

[1] = target: Tde-SAS_(1–246), catalytic domain of Treponema denticola small alarmone synthetase (Treponema denticola ATCC 35405); assay: SEC; size-exclusion chromatography of the purified recombinant protein; oligomeric state from the apparent MW against the monomer's calculated MW; column and buffer not given
[2] = target: Treponema denticola small alarmone synthetase Tde-SAS (TDE1711) (Treponema denticola ATCC 35405); assay: as above
[3] = target: Treponema denticola small alarmone hydrolase Tde-SAH (TDE1690) (Treponema denticola ATCC 35405); assay: as above
[4] = substrate: Nc1nc2c(ncn2[C@@H]2O[C@H](COP(=O)(O)OP(=O)(O)O)[C@@H](OP(=O)(O)OP(=O)(O)O)[C@H]2O)c(=O)[nH]1; assay: pyrophosphatase-coupled continuous spectrophotometric phosphate-release assay (EnzChek, MESG/PNP); format: biochemical, Treponema denticola; details: 1 mM MnCl2, pH 8.4, 37 °C
[5] = substrate: Nc1nc2c(ncn2[C@@H]2O[C@H](COP(=O)(O)OP(=O)(O)OP(=O)(O)O)[C@@H](OP(=O)(O)OP(=O)(O)O)[C@H]2O)c(=O)[nH]1; assay: as above; format: biochemical, Treponema denticola; details: 1 mM MnCl2, pH 8.4, 37 °C
[6] = substrate: Nc1nc2c(ncn2[C@@H]2O[C@H](COP(=O)(O)O)[C@@H](OP(=O)(O)OP(=O)(O)O)[C@H]2O)c(=O)[nH]1; assay: as above; format: biochemical, Treponema denticola; details: 1 mM MnCl2, pH 8.4, 37 °C

Question: What does the source list for Nc1nc2c(ncn2[C@@H]2O[C@H](COP(=O)(O)OP(=O)(O)O)[C@@H](O)[C@H]2O)c(=O)[nH]1 [GDP]?
Answer: Km (Tde-SAS; read-out: Km(GDP)): 5.29 ± 2.61 mM; Km (Tde-SAS1–246; read-out: Km(GDP)): 1.03 ± 0.3 mM

Question: How did the stoichiometry N [1] turn out when “Tde-SAS_(1–246), catalytic domain of Treponema denticola small alarmone synthetase (domain or fragment)” was run?
Answer: 4

Question: Nc1nc2c(ncn2[C@@H]2O[C@H](COP(=O)(O)OP(=O)(O)OP(=O)(O)O)[C@@H](O)[C@H]2O)c(=O)[nH]1 [GTP] was tested. Which Km (Tde-SAS; read-out: Km(GTP)) did it give?
Answer: 6.09 ± 1.01 mM

Question: What about the Km (Tde-SAS1–246; read-out: Km(GTP)) of the same molecule?
Answer: 2.91 ± 0.75 mM

Question: Which results are given for Nc1nc2c(ncn2[C@@H]2O[C@H](COP(=O)(O)O)[C@@H](O)[C@H]2O)c(=O)[nH]1 [GMP]?
Answer: Km (Tde-SAS; read-out: Km(GMP)): 11.7 ± 1.69 mM; Km (Tde-SAS1–246; read-out: Km(GMP)): 3.44 ± 0.6 mM

Question: “Treponema denticola small alarmone synthetase Tde-SAS (TDE1711) (enzyme)” was tested. Which stoichiometry N [2] did it give?
Answer: 4

Question: For “Treponema denticola small alarmone hydrolase Tde-SAH (TDE1690) (enzyme)”, which stoichiometry N [3] is on record?
Answer: 2

B1: Tde-SAH (Treponema denticola ATCC 35405) (protein)
chain: MLSFDSNKEFALTRDLGVLKGIYLAPYMQVATALIGKARHAGGNMFRHQVDTMAILIDYGYIDSVLLKASLIHDVIEDIEDFNVNEILSIDSESGQVYELVLEVTKKKGQEKTEYLKNIIKNGSEKAKILKCADRISNMISLGFVTDSEFIERYCNETELYIFPIALEVNFEMYKELMALVVSRRQYLVECGYLEERVKKMRKAR
notes: full length (205 aa in the introduction, 210 aa in the abstract); pET28a recombinant in E. coli BL21(DE3), IMAC purified; recombinant MW 27,091 Da; homodimer (SEC ~44 kDa)
Question: Which results are given for B1?
Answer: Km [4]: 0.11 mM; kcat [4]: 0.79 ± 0.07 s⁻¹; Km [5]: 0.21 mM; Km [6]: 0.12 mM; kcat [6]: 0.54 ± 0.04 s⁻¹
